Sequences and labels used below:
B1: humanized 5A10 conjugated with p-SCN-Bn-CHX-A''-DTPA (antibody, V domains shown)
VH: QVTLKESGPALVKPTQTLTLTCTFSGFSLSTTGMGVSWIRQPPGKALEWLAHIYWDDDKRYSTSLKTRLTISEDSSKNQVVLTMTNMDPVDTATYYCARKGYYGYFDYWGQGTLVTVSS
VL: DIQMTQSPSSLSASVGDRVTVTCRASQNVNTDVAWYQQKPGKAPKALIFSTSYLQSGVPSRFSGSGSGTDFTLTISSLQPEDFATYYCQQYSNYPLTFGQGTKVEIK
notes: as the heavy chain variable domain of m1; IgG1 heavy chain constant region, as in m1; as the light chain variable domain of m1; as the light chain constant region of m1; not described; IgG1; 111In labelling used the 3:1 conjugate, 177Lu labelling the 12:1 conjugate; also called h5A10-DTPA; DTPA-h5A10; source: HEK293 cells, transfected; purified by Protein G chromatography; conjugated with …
B2: murine 5A10 monoclonal IgG1 (antibody, V domains shown)
VH: EVQLVESGPGILQPSQTLSLTCSFSGFSLSTTGMGVSWIRQPSGKGLEWLAHLYWDEDKRYNPSLKSRLTISEDSSRNQVFLKITSVGPADSATYYCARKGYYGYFDYWGQGTALTVSS
VL: DIVMTQSQKFMSTSVGDRVSVTCKASQNVNTDVAWYQQKPGQSPKALIFSTSYRSSGVPDRFTGSGSGTDFTLTITNVQSEDLAEYFCQQYSNYPLTFGAGTKVDLN
notes: heavy chain variable domain of m5A10; murine IgG1 heavy chain constant region; light chain variable domain of m5A10; light chain constant region; Murine IgG1; also called m5A10; parental murine antibody m5A10; source: provided by the University of Turku (Finland), prepared as previously described [8]
B3: murine 5A10 conjugated with p-SCN-Bn-CHX-A''-DTPA (antibody, V domains shown)
VH: B2 VH
VL: B2 VL
notes: as the heavy chain variable domain of m2; murine IgG1 heavy chain constant region, as in m2; as the light chain variable domain of m2; as the light chain constant region of m2; Murine IgG1; also called m5A10-DTPA; DTPA-m5A10; source: provided by the University of Turku (Finland); conjugated with p-SCN-Bn-CHX-A''-DTPA and separated from free chelate on a NAP-5 column
B4: humanized 5A10 IgG1 (antibody, V domains shown)
VH: B1 VH
VL: B1 VL
notes: heavy chain variable domain of h5A10; IgG1 heavy chain constant region; light chain variable domain of h5A10; light chain constant region; not described, only the plasmid name p5A10VlhDhK hints at human kappa; IgG1; Light chain constant region probably human kappa (surmised from the plasmid name and the Vk1 template); also called h5A10; humanized antibody h5A10; source: HEK293 cells, transfected; …

Here are results for 4 molecules from publication PMC8703390, “Humanization, Radiolabeling and Biodistribution Studies of an IgG1-Type Antibody Targeting Uncomplexed PSA for Theranostic Applications” (Pharmaceuticals, 2021).

The first assay deals with T1, human kallikrein-2 (hK2) (Homo sapiens, UniProt P20151).
T1 construct: human kallikrein-2 (hK2), the human protein most similar to PSA; source: bought: Innovagen AB (ELISA)
T1 sequence (P20151 19-261): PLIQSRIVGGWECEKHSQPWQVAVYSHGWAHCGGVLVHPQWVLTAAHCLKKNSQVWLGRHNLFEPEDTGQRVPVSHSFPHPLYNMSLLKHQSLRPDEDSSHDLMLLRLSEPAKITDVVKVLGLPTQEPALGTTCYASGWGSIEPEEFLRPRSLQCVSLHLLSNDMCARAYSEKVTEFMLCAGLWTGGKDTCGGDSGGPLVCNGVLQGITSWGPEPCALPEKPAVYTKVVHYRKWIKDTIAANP
As to the kind of experiment: SPR; control hK2 antigen; data not shown. The settings on record: both partners purified. (In general: SPR reads the build-up and loss of mass on a sensor chip optically.)
B1: the binding result is “no binding (tested: 100, 50, 25, 12.5 and 10 nM)”.
B2: the binding result is “no binding (tested: 100, 50, 25, 12.5 and 10 nM)”.
Same read-out and setting: for B3 the value was “no binding (tested: 100, 50, 25, 12.5 and 10 nM)”.

The target of a further assay is T2, prostate-specific antigen (PSA), uncomplexed free PSA (Homo sapiens, UniProt P07288).
T2 construct: prostate-specific antigen (PSA), human kallikrein; uncomplexed (free) form; also called fPSA; source: bought: Merck (ELISA)
T2 sequence (P07288 25-261, one chain of several): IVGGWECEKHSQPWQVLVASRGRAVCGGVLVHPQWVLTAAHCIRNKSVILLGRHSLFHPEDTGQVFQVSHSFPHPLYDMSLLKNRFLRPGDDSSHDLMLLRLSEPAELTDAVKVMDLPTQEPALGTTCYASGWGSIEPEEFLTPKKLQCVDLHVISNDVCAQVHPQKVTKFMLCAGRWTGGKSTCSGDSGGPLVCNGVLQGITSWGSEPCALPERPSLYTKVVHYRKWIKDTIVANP
Briefly: SPR; Biacore 2000; PSA immobilised on a CM4 chip by amine coupling (900-1000 RU); antibodies at 100, 50, 25, 12.5 and 10 nM in HSP-buffer flown at 30 uL/min; association 4-5 min, dissociation up to 480 min; bi-exponential fits to binding and dissociation curves; KD = Koff/Kon. The conditions noted are these: both partners purified.
One may read the Kd as the free concentration of one partner at which half of the binding sites on the other are occupied at equilibrium, for simple one-to-one binding. A lower Kd goes with higher affinity. What is called koff is a measure of how fast the partners let go of each other. For orientation: kon means the rate constant with which the complex forms. A high value points to fast association. In the case of B1, the Kd stood at 0.012 nM, the dissociation rate constant (koff) was 4.8e-06 s⁻¹ and the kon was determined as 390000 M⁻¹ s⁻¹.
The matching figures for B4: 0.0077 nM, 4.8e-06 s⁻¹ and 620000 M⁻¹ s⁻¹.
Taken in the same sequence, the figures for B2 were 0.022 nM, 5.4e-06 s⁻¹ and 250000 M⁻¹ s⁻¹.
With B3, the Kd worked out at 0.023 nM, the koff was determined as 6.3e-06 s⁻¹ and the on-rate (kon) stood at 270000 M⁻¹ s⁻¹.

The target in another assay is T1, human kallikrein-2 (hK2). As to the kind of experiment: ELISA; wells coated with PSA or hK2 (100 uL at 1 ug/mL) overnight; h5A10 dilution series from 5 ug/mL in four-fold steps, 1 h at RT; detected with goat anti-human-AP and pNPP, absorbance at 405 nm. The conditions noted are these: both partners purified.
With B4, the binding result is “no binding (tested: 5 µg/mL)”.
